Experiment [1] addresses human GLP-1 (hGLP-1) receptor (human) (UniProt P43220).
Experiment [2] shares this target. This is another data set of the same source.

Read-outs that look alike come from different tables or passages of the source.

Chain of human GLP-1 (hGLP-1) receptor (human) (P43220 24-463): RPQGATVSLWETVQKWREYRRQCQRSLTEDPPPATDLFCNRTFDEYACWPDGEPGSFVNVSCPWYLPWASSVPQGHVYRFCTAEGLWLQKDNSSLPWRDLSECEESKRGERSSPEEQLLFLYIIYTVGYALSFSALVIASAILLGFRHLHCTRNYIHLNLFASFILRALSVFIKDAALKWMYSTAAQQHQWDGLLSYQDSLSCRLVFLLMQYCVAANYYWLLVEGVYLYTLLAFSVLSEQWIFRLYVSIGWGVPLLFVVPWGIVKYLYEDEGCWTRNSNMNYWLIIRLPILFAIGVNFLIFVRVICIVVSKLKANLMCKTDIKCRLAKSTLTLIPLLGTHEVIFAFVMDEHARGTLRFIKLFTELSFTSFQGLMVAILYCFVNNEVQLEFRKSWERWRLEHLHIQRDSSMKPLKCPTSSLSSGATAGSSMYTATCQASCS

In turn, “[Aib^2, Nle^14]Exendin-4(1-39)-NH2 (peptide)” showed a hGLP-1 cAMP* in experiment [1] of 62.
“[Aib^2,29, Nle^14, Arg^30]Exendin-4(1-30)-NH2 (peptide)” returned a hGLP-1 cAMP* in experiment [2] of 95.
The substance “[Aib^2, Nle^14, β-Ala^29, Arg^30]Exendin-4(1-30)-NH2 (peptide)” returned a hGLP-1 cAMP* in experiment [1] of 90.
